Results as given in article PMC9958131 (Nature Communications, 2023).

tested on: recombinant human PAD2 and PAD4; test: Citrullination site mapping by trypsin digestion and mass spectrometry; protein-level modifications over native, PAD2- and PAD4-citrullinated samples combined; format: biochemical; conditions: trypsin digest, Sequest HT search; co-identified proteins in the fibrinogen and vimentin samples (native, PAD2-cit, PAD4-cit); not split by sample or enzyme
Description: (§1) Description: Raw mass spectrometry data for proteolytic mapping of fibrinogen, vimentin, and hnRNP A2/B1 by cathepsins B, S, and H (sheets 1-6); citrullination site mapping of fibrinogen and vimentin by trypsin digestion (sheets 7-8); and the natural antigen processing assay with native, PAD2-citrullinated (PAD2-cit), and PAD4-citrullinated (PAD4-cit) fibrinogen (sheets 9-11).

Molecule	Modifications (Deamidated [R...] = citrullinated arginine positions found)
Keratin, type II cuticular Hb5 (protein, UniProt P78386 1-507, looked up) Keratin, type II cuticular Hb5: MSCRSYRISSGCGVTRNFSSCSAVAPKTGNRCCISAAPYRGVSCYRGLTGFGSRSLCNLGSCGPRIAVGGFRAGSCGRSFGYRSGGVCGPSPPCITTVSVNESLLTPLNLEIDPNAQCVKQEEKEQIKSLNSRFAAFIDKVRFLEQQNKLLETKWQFYQNQRCCESNLEPLFSGYIETLRREAECVEADSGRLASELNHVQEVLEGYKKKYEEEVALRATAENEFVVLKKDVDCAYLRKSDLEANVEALVEESSFLRRLYEEEIRVLQAHISDTSVIVKMDNSRDLNMDCIIAEIKAQYDDVASRSRAEAESWYRSKCEEMKATVIRHGETLRRTKEEINELNRMIQRLTAEIENAKCQRAKLEAAVAEAEQQGEAALSDARCKLAELEGALQKAKQDMACLLKEYQEVMNSKLGLDIEIATYRRLLEGEEHRLCEGVGSVNVCVSSSRGGVSCGGLSYSTTPGRQITSGPSAIGGSITVVAPDSCAPCQPRSSSFSCGSSRSVRFA	Deamidated [R142]
Angiotensinogen (protein, UniProt P01019 25-476, looked up) Angiotensinogen: DRVYIHPFHLVIHNESTCEQLAKANAGKPKDPTFIPAPIQAKTSPVDEKALQDQLVLVAAKLDTEDKLRAAMVGMLANFLGFRIYGMHSELWGVVHGATVLSPTAVFGTLASLYLGALDHTADRLQAILGVPWKDKNCTSRLDAHKVLSALQAVQGLLVAQGRADSQAQLLLSTVVGVFTAPGLHLKQPFVQGLALYTPVVLPRSLDFTELDVAAEKIDRFMQAVTGWKTGCSLMGASVDSTLAFNTYVHFQGKMKGFSLLAEPQEFWVDNSTSVSVPMLSGMGTFQHWSDIQDNFSVTQVPFTESACLLLIQPHYASDLDKVEGLTFQQNSLNWMKKLSPRTIHLTMPQLVLQGSYDLQDLLAQAELPAILHTELNLQKLSNDRIRVGEVLNSIFFELEADEREPTESTQQLNKPEVLEVTLNRPFLFAVYDQSATALHFLGRVANPLSTA	Deamidated [R237]
Galectin-3-binding protein (protein, UniProt Q08380 19-585, looked up) Galectin-3-binding protein: VNDGDMRLADGGATNQGRVEIFYRGQWGTVCDNLWDLTDASVVCRALGFENATQALGRAAFGQGSGPIMLDEVQCTGTEASLADCKSLGWLKSNCRHERDAGVVCTNETRSTHTLDLSRELSEALGQIFDSQRGCDLSISVNVQGEDALGFCGHTVILTANLEAQALWKEPGSNVTMSVDAECVPMVRDLLRYFYSRRIDITLSSVKCFHKLASAYGARQLQGYCASLFAILLPQDPSFQMPLDLYAYAVATGDALLEKLCLQFLAWNFEALTQAEAWPSVPTDLLQLLLPRSDLAVPSELALLKAVDTWSWGERASHEEVEGLVEKIRFPMMLPEELFELQFNLSLYWSHEALFQKKTLQALEFHTVPFQLLARYKGLNLTEDTYKPRIYTSPTWSAFVTDSSWSARKSQLVYQSRRGPLVKYSSDYFQAPSDYRYYPYQSFQTPQHPSFLFQDKRVSWSLVYLPTIQSCWNYGFSCSSDELPVLGLTKSGGSDRTIAYENKALMLCEGLFVADVTDFEGWKAAIPSALDTNSSKSTSSFPCPAGHFNGFRTVIRPFYLTNSSGVD	Deamidated [R63; R426; R435; R436; R570]
Kininogen-1 (protein, UniProt P01042 19-644, looked up) Kininogen-1: QESQSEEIDCNDKDLFKAVDAALKKYNSQNQSNNQFVLYRITEATKTVGSDTFYSFKYEIKEGDCPVQSGKTWQDCEYKDAAKAATGECTATVGKRSSTKFSVATQTCQITPAEGPVVTAQYDCLGCVHPISTQSPDLEPILRHGIQYFNNNTQHSSLFMLNEVKRAQRQVVAGLNFRITYSIVQTNCSKENFLFLTPDCKSLWNGDTGECTDNAYIDIQLRIASFSQNCDIYPGKDFVQPPTKICVGCPRDIPTNSPELEETLTHTITKLNAENNATFYFKIDNVKKARVQVVAGKKYFIDFVARETTCSKESNEELTESCETKKLGQSLDCNAEVYVVPWEKKIYPTVNCQPLGMISLMKRPPGFSPFRSSRIGEIKEETTVSPPHTSMAPAQDEERDSGKEQGHTRRHDWGHEKQRKHNLGHGHKHERDQGHGHQRGHGLGHGHEQQHGLGHGHKFKLDDDLEHQGGHVLDHGHKHKHGHGHGKHKNKGKKNGKHNGWKTEHLASSSEDSTTPSAQTQEKTEGPTPIPSLAKPGVTVTFSDFQDSDLIATMMPPISPAPIQSDDDWIPDIQIDPNGLSFNPISDFPDTTSPKCPGRPWKSVSEINPTTQMKESYYFDLTDGLS	Deamidated [R269; R389; R392]
Complement factor H-related protein 5 (protein, UniProt Q9BXR6 19-569, looked up) Complement factor H-related …: EGTLCDFPKIHHGFLYDEEDYNPFSQVPTGEVFYYSCEYNFVSPSKSFWTRITCTEEGWSPTPKCLRMCSFPFVKNGHSESSGLIHLEGDTVQIICNTGYSLQNNEKNISCVERGWSTPPICSFTKGECHVPILEANVDAQPKKESYKVGDVLKFSCRKNLIRVGSDSVQCYQFGWSPNFPTCKGQVRSCGPPPQLSNGEVKEIRKEEYGHNEVVEYDCNPNFIINGPKKIQCVDGEWTTLPTCVEQVKTCGYIPELEYGYVQPSVPPYQHGVSVEVNCRNEYAMIGNNMITCINGIWTELPMCVATHQLKRCKIAGVNIKTLLKLSGKEFNHNSRIRYRCSDIFRYRHSVCINGKWNPEVDCTEKREQFCPPPPQIPNAQNMTTTVNYQDGEKVAVLCKENYLLPEAKEIVCKDGRWQSLPRCVESTAYCGPPPSINNGDTTSFPLSVYPPGSTVTYRCQSFYKLQGSVTVTCRNKQWSEPPRCLDPCVVSEENMNKNNIQLKWRNDGKLYAKTGDAVEFQCKFPHKAMISSPPFRAICQEGKFEYPICE	Deamidated [R69]
Carboxypeptidase N subunit 2 (protein, UniProt P22792 22-545, looked up) Carboxypeptidase N subunit 2: CPMGCDCFVQEVFCSDEELATVPLDIPPYTKNIIFVETSFTTLETRAFGSNPNLTKVVFLNTQLCQFRPDAFGGLPRLEDLEVTGSSFLNLSTNIFSNLTSLGKLTLNFNMLEALPEGLFQHLAALESLHLQGNQLQALPRRLFQPLTHLKTLNLAQNLLAQLPEELFHPLTSLQTLKLSNNALSGLPQGVFGKLGSLQELFLDSNNISELPPQVFSQLFCLERLWLQRNAITHLPLSIFASLGNLTFLSLQWNMLRVLPAGLFAHTPCLVGLSLTHNQLETVAEGTFAHLSNLRSLMLSYNAITHLPAGIFRDLEELVKLYLGSNNLTALHPALFQNLSKLELLSLSKNQLTTLPEGIFDTNYNLFNLALHGNPWQCDCHLAYLFNWLQQYTDRLLNIQTYCAGPAYLKGQVVPALNEKQLVCPVTRDHLGFQVTWPDESKAGGSWDLAVQERAARSQCTYSNPEGTVVLACDQAQCRWLNVQLSPQQGSLGLQYNASQEWDLRSSCGSLRLTVSIEARAAGP	Deamidated [R89; R449]
Keratin, type II cuticular Hb6 (protein, UniProt O43790 1-486, looked up) Keratin, type II cuticular Hb6: MTCGSYCGGRAFSCISACGPRPGRCCITAAPYRGISCYRGLTGGFGSHSVCGGFRAGSCGRSFGYRSGGVCGPSPPCITTVSVNESLLTPLNLEIDPNAQCVKQEEKEQIKSLNSRFAAFIDKVRFLEQQNKLLETKLQFYQNRECCQSNLEPLFEGYIETLRREAECVEADSGRLASELNHVQEVLEGYKKKYEEEVSLRATAENEFVALKKDVDCAYLRKSDLEANVEALIQEIDFLRRLYEEEIRVLQSHISDTSVVVKLDNSRDLNMDCIIAEIKAQYDDIVTRSRAEAESWYRSKCEEMKATVIRHGETLRRTKEEINELNRMIQRLTAEVENAKCQNSKLEAAVAQSEQQGEAALSDARCKLAELEGALQKAKQDMACLIREYQEVMNSKLGLDIEIATYRRLLEGEEQRLCEGVGSVNVCVSSSRGGVVCGDLCASTTAPVVSTRVSSVPSNSNVVVGTTNACAPSARVGVCGGSCKRC	Deamidated [R125]
Interferon alpha-21 (protein, UniProt P01568 24-189, looked up) Interferon alpha-21: CDLPQTHSLGNRRALILLAQMGRISPFSCLKDRHDFGFPQEEFDGNQFQKAQAISVLHEMIQQTFNLFSTKDSSATWEQSLLEKFSTELNQQLNDLEACVIQEVGVEETPLMNVDSILAVKKYFQRITLYLTEKKYSPCAWEVVRAEIMRSFSLSKIFQERLRRKE	Deamidated [R56]
Tubulin beta-4A chain (protein, UniProt P04350 1-444, looked up) Tubulin beta-4A chain: MREIVHLQAGQCGNQIGAKFWEVISDEHGIDPTGTYHGDSDLQLERINVYYNEATGGNYVPRAVLVDLEPGTMDSVRSGPFGQIFRPDNFVFGQSGAGNNWAKGHYTEGAELVDAVLDVVRKEAESCDCLQGFQLTHSLGGGTGSGMGTLLISKIREEFPDRIMNTFSVVPSPKVSDTVVEPYNATLSVHQLVENTDETYCIDNEALYDICFRTLKLTTPTYGDLNHLVSATMSGVTTCLRFPGQLNADLRKLAVNMVPFPRLHFFMPGFAPLTSRGSQQYRALTVPELTQQMFDAKNMMAACDPRHGRYLTVAAVFRGRMSMKEVDEQMLSVQSKNSSYFVEWIPNNVKTAVCDIPPRGLKMAATFIGNSTAIQELFKRISEQFTAMFRRKAFLHWYTGEGMDEMEFTEAESNMNDLVSEYQQYQDATAEEGEFEEEAEEEVA	Deamidated [R2]

tested on: PAD2 and PAD4; test: Citrullination site mapping of fibrinogen and vimentin by trypsin digestion and mass spectrometry (protein-level sheet, one search over native, PAD2-cit and PAD4-cit samples); format: biochemical, human; conditions: modified residues found per protein; Deamidated [R..] = deamidated (citrullinated) arginine positions; trypsin digest, Sequest HT; not split by sample (native, PAD2-citrullinated, PAD4-citrullinated fibrinogen and vimentin)
Description: as §1

Molecule	Modifications
Fibrinogen a: α chain of human fibrinogen (Cayman Chemical), RA autoantigen; native or citrullinated by PAD2 or PAD4 (protein) MFSMRIVCLVLSVVGTAWTADSGEGDFLAEGGGVRGPRVVERHQSACKDSDWPFCSDEDWNYKCPSGCRMKGLIDEVNQDFTNRINKLKNSLFEYQKNNKDSHSLTTNIMEILRGDFSSANNRDNTYNRVSEDLRSRIEVLKRKVIEKVQHIQLLQKNVRAQLVDMKRLEVDIDIKIRSCRGSCSRALAREVDLKDYEDQQKQLEQVIAKDLLPSRDRQHLPLIKMKPVPDLVPGNFKSQLQKVPPEWKALTDMPQMRMELERPGGNEITRGGSTSYGTGSETESPRNPSSAGSWNSGSSGPGSTGNRNPGSSGTGGTATWKPGSSGPGSTGSWNSGSSGTGSTGNQNPGSPRPGSTGTWNPGSSERGSAGHWTSESSVSGSTGQWHSESGSFRPDSPGSGNARPNNPDWGTFEEVSGNVSPGTRREYHTEKLVTSKGDKELRTGKEKVTSGSTTTTRRSCSKTVTKTVIGPDGHKEVTKEVVTSEDGSDCPEAMDLGTL	Deamidated [R42; R84; R114; R123; R129; R160; R216; R218; R258; R263; R271; R287; R308; R510; R512; R547; R573; R591]
